These results are taken from patent US9340577B2, “HLA binding motifs and peptides and their uses” (priority 1992, dated 2016).

Test [1] concerns the target HLA-A*0201 (HLA-A2.1) (Homo sapiens, UniProt P04439, D140Y/D185E/D98H/E176V/E277Q/G131W/G231S/I119V/I121R/I166T/I218V/L300P/L318F/N151K/N90K/P208A/P217A/Q86G/Q94H/R138H/R169H/T345S). Put plainly: biochemical. The class given is binding.
Test [2] concerns HLA-A24. It counts as binding, human.
Test [3] deals with A2.1 HLA molecules (Homo sapiens, UniProt P04439, D140Y/D185E/D98H/E176V/E277Q/G131W/G231S/I119V/I121R/I166T/I218V/L300P/L318F/N151K/N90K/P208A/P217A/Q86G/Q94H/R138H/R169H/T345S). It counts as binding. On the set-up: A*0201 / A2.1 Binding / A2 Bind. / A2 / A2.1 (binding capacity): scale not given here.

“And” between values parts separate entries of the source, which are not always exact repeats. Identical values can stand only once.

Turning to FLWGPRALA, the “binding to HLA-A2.1 (column 3; no allele head shown for these rows)” value in test [1] is 0.042 and 0.027. Besides, the “binding to HLA-A24 (column 6; no allele head shown for these rows)” value in test [2] is given as 0. Also, in test [3], the A2 turned out to be 0.0420 and the “A2 Bind.” value was determined as 0.0420.
For KVLEYVIKV, the “binding to HLA-A2.1 (column 3; no allele head shown for these rows)” value in test [1] was found to be 0.095. Further, the “binding to HLA-A24 (column 6; no allele head shown for these rows)” value in test [2] turned out to be 0. Moreover, the “A2 Bind.” value in test [3] was 0.0900.
Consider ALAETSYVK, for which the “binding to HLA-A2.1 (column 3; no allele head shown for these rows)” value in test [1] came out at 0.0002. For the same sequence, in test [2], the “binding to HLA-A24 (column 6; no allele head shown for these rows)” value is 0.
In the same order, the values of ILESLFRA are 0.0017 and 0.0011.
Regarding FLIIVLVMIAM, the “binding to HLA-A2.1 (column 3; no allele head shown for these rows)” value in test [1] is 0.0041 and 0.0031. The “binding to HLA-A24 (column 6; no allele head shown for these rows)” value in test [2] amounted to 0.0011.
Consider EAQQEALGL, for which, in test [1], the “binding to HLA-A2.1 (column 3; no allele head shown for these rows)” value is 0. The “binding to HLA-A24 (column 6; no allele head shown for these rows)” value in test [2] is under 0.0002.
ETSYVKVLEY: the “binding to HLA-A2.1 (column 3; no allele head shown for these rows)” value in test [1] turned out to be 0. Moreover, the “binding to HLA-A24 (column 6; no allele head shown for these rows)” value in test [2] is given as 0.
On to IMPKTGFLII, for which, in test [1], the “binding to HLA-A2.1 (column 3; no allele head shown for these rows)” value is recorded as 0.0007. The “binding to HLA-A24 (column 6; no allele head shown for these rows)” value in test [2] worked out at 0.050.
With VLVTCLGL, the “binding to HLA-A2.1 (column 3; no allele head shown for these rows)” value in test [1] is on record as 0.0010. In addition, the “binding to HLA-A24 (column 6; no allele head shown for these rows)” value in test [2] is 0.
Consider SLQLVFGIDV, for which the “binding to HLA-A2.1 (column 3; no allele head shown for these rows)” value in test [1] came out at 0.0047. Besides, the “binding to HLA-A24 (column 6; no allele head shown for these rows)” value in test [2] was determined as 0.0001.
In the same order, the values of SLQLVFGI are 0.0094 and 0.
Consider EIWEELSVMEV, for which, in test [1], the “binding to HLA-A2.1 (column 3; no allele head shown for these rows)” value stood at 0.013. Also, the “binding to HLA-A24 (column 6; no allele head shown for these rows)” value in test [2] was 0.
Take GASSFSTTI: in test [1], the “binding to HLA-A2.1 (column 3; no allele head shown for these rows)” value is on record as 0. The “binding to HLA-A24 (column 6; no allele head shown for these rows)” value in test [2] worked out at 0.0002.
Take KAEMLESVL: in test [1], the “binding to HLA-A2.1 (column 3; no allele head shown for these rows)” value stood at 0. Moreover, the “binding to HLA-A24 (column 6; no allele head shown for these rows)” value in test [2] worked out at 0.
As for SAYGEPRKLL, the “binding to HLA-A2.1 (column 3; no allele head shown for these rows)” value in test [1] came to 0. The “binding to HLA-A24 (column 6; no allele head shown for these rows)” value in test [2] is on record as 0.0008.
Regarding EMLESVIKN, the A2.1 in test [1] is under 0.0002. This sequence also showed an A24 in test [2] of 0.
In the case of VIPHAMSSCGV, the “binding to HLA-A2.1 (column 3; no allele head shown for these rows)” value in test [1] is on record as 1.4. Moreover, the “binding to HLA-A24 (column 6; no allele head shown for these rows)” value in test [2] is given as 0.
Consider MLESVIKNYK, for which the “binding to HLA-A2.1 (column 3; no allele head shown for these rows)” value in test [1] is 0. Further, the “binding to HLA-A24 (column 6; no allele head shown for these rows)” value in test [2] stood at 0.
As to KAEMLESVI, in test [1], the “binding to HLA-A2.1 (column 3; no allele head shown for these rows)” value came to 0. Further, in test [2], the “binding to HLA-A24 (column 6; no allele head shown for these rows)” value was under 0.0002.
For EALEAQQEAL, the “binding to HLA-A2.1 (column 3; no allele head shown for these rows)” value in test [1] worked out at 0. Also, the “binding to HLA-A24 (column 6; no allele head shown for these rows)” value in test [2] came out at 0.
IMPKTGFLI: the “binding to HLA-A2.1 (column 3; no allele head shown for these rows)” value in test [1] was 0.0035. Also, in test [2], the “binding to HLA-A24 (column 6; no allele head shown for these rows)” value is 3.2.
With ILLWQPIPV, the “binding to HLA-A2.1 (column 3; no allele head shown for these rows)” value in test [1] came out at 1.4. Also, the “binding to HLA-A24 (column 6; no allele head shown for these rows)” value in test [2] amounted to 0.
As for SAYGEPRKL, the “binding to HLA-A2.1 (column 3; no allele head shown for these rows)” value in test [1] amounted to 0.0002. Further, in test [2], the “binding to HLA-A24 (column 6; no allele head shown for these rows)” value is recorded as under 0.0002.
As for VAELVHFLL, in test [1], the “binding to HLA-A2.1 (column 3; no allele head shown for these rows)” value turned out to be 0. The “binding to HLA-A24 (column 6; no allele head shown for these rows)” value in test [2] turned out to be 0.039.
VADLVGFLLL: the “binding to HLA-A2.1 (column 3; no allele head shown for these rows)” value in test [1] is recorded as 0.0008. For the same sequence, the “binding to HLA-A24 (column 6; no allele head shown for these rows)” value in test [2] was 0.0003.
As for GLVCVQAAT, the “binding to HLA-A2.1 (column 3; no allele head shown for these rows)” value in test [1] is reported as 0.0007. For the same sequence, the “binding to HLA-A24 (column 6; no allele head shown for these rows)” value in test [2] stood at 0.0001.
